Results taken from publication PMC9400903, “A Versatile Synthetic Affinity Probe Reveals Inhibitory Synapse Ultrastructure and Brain Connectivity**” (Angewandte Chemie (International Ed. in English), 2022).
Where no end group is shown, it is not given here.

B1: Sylite (peptide)
chain 1: YSIVGSYPRKC(maleimide‑Cy5)
chain 2: YSIVGSYPR
modifications: also: two chains joined via linker, linkage not given here
B2: SyliteM (peptide)
chain: FSIVGSYPRRRRRRRRR
modifications: also: fluorophore

What was measured:
eGFP-gephyrin = target: T1, eGFP-gephyrin (UniProt Q03555 1-768); test: immunostaining of cells or tissue; fixed COS-7 cells expressing eGFP-gephyrin or eGFP alone, stained with the fluorescent probes (50 nM Sylite); probe signal at eGFP-rich regions; conditions: one partner purified
T1 construct: gephyrin; source: COS-7 cells, expressed, cells fixed; 'mammalian cells' for the test of SyliteCy3
T1 sequence (looked up): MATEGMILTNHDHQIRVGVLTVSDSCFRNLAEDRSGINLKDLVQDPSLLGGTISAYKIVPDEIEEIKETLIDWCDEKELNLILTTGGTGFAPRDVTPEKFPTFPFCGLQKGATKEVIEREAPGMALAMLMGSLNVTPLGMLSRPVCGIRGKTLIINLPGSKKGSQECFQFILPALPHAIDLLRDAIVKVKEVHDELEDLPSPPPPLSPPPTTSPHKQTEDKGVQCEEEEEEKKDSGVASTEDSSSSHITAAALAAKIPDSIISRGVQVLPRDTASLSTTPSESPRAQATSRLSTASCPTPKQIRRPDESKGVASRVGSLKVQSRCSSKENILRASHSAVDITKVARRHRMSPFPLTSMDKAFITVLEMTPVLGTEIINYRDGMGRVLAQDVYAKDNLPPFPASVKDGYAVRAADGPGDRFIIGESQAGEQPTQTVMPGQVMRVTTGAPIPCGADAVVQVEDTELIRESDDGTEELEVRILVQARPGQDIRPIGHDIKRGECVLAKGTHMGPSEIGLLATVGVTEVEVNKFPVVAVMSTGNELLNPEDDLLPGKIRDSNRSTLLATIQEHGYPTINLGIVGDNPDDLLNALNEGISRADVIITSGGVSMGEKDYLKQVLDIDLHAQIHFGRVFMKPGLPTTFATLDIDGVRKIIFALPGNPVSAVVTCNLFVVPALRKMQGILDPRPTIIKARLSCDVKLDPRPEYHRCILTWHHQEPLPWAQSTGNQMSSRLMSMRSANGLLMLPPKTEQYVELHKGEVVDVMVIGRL

Sylite = target: B1; test: ITC; Sylite or SyliteM titrated with purified gephyrin E domain; N=3; conditions: both partners purified
SyliteM = target: B2; test: as above; conditions: both partners purified

Binder: B1
- signal-to-background ratio (SBR) (eGFP-gephyrin): 492

Binder: B2
- signal-to-background ratio (SBR) (eGFP-gephyrin): 36

B3: gephyrin E domain (domain or fragment)
chain: SSKENILRASHSAVDITKVARRHRMSPFPLTSMDKAFITVLEMTPVLGTEIINYRDGMGRVLAQDVYAKDNLPPFPASVKDGYAVRAADGPGDRFIIGESQAGEQPTQTVMPGQVMRVTTGAPIPCGADAVVQVEDTELIRESDDGTEELEVRILVQARPGQDIRPIGHDIKRGECVLAKGTHMGPSEIGLLATVGVTEVEVNKFPVVAVMSTGNELLNPEDDLLPGKIRDSNRSTLLATIQEHGYPTINLGIVGDNPDDLLNALNEGISRADVIITSGGVSMGEKDYLKQVLDIDLHAQIHFGRVFMKPGLPTTFATLDIDGVRKIIFALPGNPVSAVVTCNLFVVPALRKMQGILDPRPTIIKARLSCDVKLDPRPEYHRCILTWHHQEPLPWAQSTGNQMSSRLMSMRSANGLLMLPPKTEQYVELHKGEVVDVMVIGRL
- Kd (Sylite): 0.0175 µM
- stoichiometry N (Sylite): 2 gephyrin E domain per probe
- Kd (SyliteM): 0.205 µM
